These results are taken from patent US20230340132A1, “ANTI-ADENOSINE RECEPTOR (A2aR) ANTIBODIES” (NA Biotech Corp, priority 2020, published 2023).

The target of assay [1] is T1, human adenosine receptor A1 (Homo sapiens, UniProt P30542).
T1 construct: FLAG
T1 sequence (P30542 1-326): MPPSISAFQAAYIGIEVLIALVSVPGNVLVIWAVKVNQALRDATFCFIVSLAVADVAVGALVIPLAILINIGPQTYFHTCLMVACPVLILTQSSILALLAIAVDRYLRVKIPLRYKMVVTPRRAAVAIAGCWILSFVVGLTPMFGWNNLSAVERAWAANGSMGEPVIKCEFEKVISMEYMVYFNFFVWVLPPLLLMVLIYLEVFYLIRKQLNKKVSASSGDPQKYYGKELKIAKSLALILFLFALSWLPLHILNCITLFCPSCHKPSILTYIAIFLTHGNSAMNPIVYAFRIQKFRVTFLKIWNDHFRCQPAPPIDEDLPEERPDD
The assay can be described thus: flow cytometry-based cell-binding assay, HEK293T-A1. Conditions: for Geo Mean: HEK293T-A1, duplicate; for binding to HEK293T-A1 relative to binding to human A2aR (in words): summary of Table 12. The protocol: (§1) To test the specificity of the antigen binding molecules of the invention, e.g., anti-A2aR antibodies or antigen binding fragments thereof to human A2aR and not towards any of the other 3 adenosine receptor family members, a flow cytometry-based cell-binding assay was performed by Multispan Inc (Hayward, CA). HEK293T cells stably expressing various adenosine receptors, i.e., human A1R, A2bR, and A3R, and mouse A2R, generated by Multispan Inc and HEK293T parental cell lines were used in the assay. Briefly, adenosine receptor-overexpressing cell lines and HEK293T parental cell lines were incubated with 2, 10, and 50 nM of anti-human A2aR monoclonal antibodies (clones 1B5-3D7 and 3F6-9G5) and 10 and 50 nM of mouse IgG2a Isotype control at 4° C. in the dark for 60 minutes. Anti-FLAG antibody (Abcam, ab72469, 2 μg/mL) was used as positive control for cell lines over-expressing various adenosine receptors, respectively. After 3 washes with FACS buffer (PBS plus 0.1% BSA and 0.2% sodium azide), cells were stained with an anti-mouse-IgG-PE (Invitrogen, cat. P852) detection antibody for 45 minutes at 4° C. The cells were then washed 3 times with FACS buffer and analyzed on FACSort (Becton Dickinson). Data was analyzed using CellQuest Pro (Becton Dickinson).

The target in assay [2] is T2, human adenosine receptor A3 (Homo sapiens, UniProt P0DMS8).
T2 construct: FLAG
T2 sequence (P0DMS8 1-318): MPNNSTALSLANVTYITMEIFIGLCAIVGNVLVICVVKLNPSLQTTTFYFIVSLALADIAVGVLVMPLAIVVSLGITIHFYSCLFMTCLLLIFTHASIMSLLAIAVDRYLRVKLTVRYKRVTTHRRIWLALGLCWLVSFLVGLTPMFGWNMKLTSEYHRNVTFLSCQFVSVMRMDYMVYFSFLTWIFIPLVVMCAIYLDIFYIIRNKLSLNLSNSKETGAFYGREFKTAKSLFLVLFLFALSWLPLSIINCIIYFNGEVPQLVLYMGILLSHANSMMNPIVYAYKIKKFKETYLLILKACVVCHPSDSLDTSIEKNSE
The assay can be described thus: flow cytometry-based cell-binding assay, HEK293T-A3. Conditions: duplicate. Here is the method:
as §1

Assay [3] has as its system parental Expi293 cells. The assay can be described thus: FACS screening of hybridoma clones on parental Expi293 cells. Type of assay: binding. Conditions: antibodies from hybridoma clones. Here is the method:
Serum titration was performed using Fluorescence-Activated Cell Sorting (FACS) pursuant to standard procedures. Human A2aR-expressing Expi293 cells were first added to 96-well plate (1×10^5 cells per well), 50 μl of serial diluted serum (1:50, 1;150, 1:450, 1:[…], 1:12150) from each individual mouse was incubated with cells for 30 min. on ice. After washing with FACS buffer (2% Fetal bovine serum, 2 mM EDTA in PBS), Alex Fluor 647-conjugated anti mouse IgG was added and incubated for 20 min on ice. Cells were resuspending with 100 μl FACS buffer after two times wash and ready for FACS analysis (BD LSR II Flow Cytometer, HTS). […] (MFI: mean fluorescence intensity).
Primary screening of the hybridoma supernatants in the 96-well plates was performed using the same FACS procedure as described for serum titration except following changes: 1) Human A2aR-expressing Expi293 cells (expressing GFP) were mixed at 1:1 ratio with parental Expi293 (no A2aR expression) and added to 96-well plates (2×10^5 cells per well), 2) 50 μl hybridoma supernatant transferred from each well of 96-well plates was incubated with cells for 30 min. on ice.
Sub-cloning was performed by limiting dilution method. In short, the positive wells identified by FACS were seeded into 96-well plate at an average density of 1 cell/well. The […] was placed in incubator for 7-10 days to allow the growth of the cells. The growth of cells was monitored periodically. At about day 4, the wells on the plate were observed under phase contrast microscopy and the wells which appeared to have single colony growing (i.e., only one clumping of hybridomas) were recorded. The cells from the single colony wells were screed by FACS using the same procedure as described for primary screening of hybridoma when the confluence of the cell reached about 50%.

Assay [4] has as its system parental Expi293 cells. The assay can be described thus: FACS binding titration on parental Expi293 cells. Conditions: 12-point 1:2 serial dilution starting from 7.5 ug/ml. Here is the method: (§2) Human A2aR-expressing Expi293 cells or parental Expi293 cells were first added to 96-well plate (1×10^5 cells per well). Fifty microliters (50 μl) of 12-point 1:2 serial diluted samples starting from 7.5 ug/ml for each antibody was incubated with cells for 30 minutes on ice. After being washed with FACS buffer (2% Fetal bovine serum in DPBS), […] of Alex Fluor 633-conjugated anti mouse IgG (Life technology, Cat.A21050) or Alex Fluor 647-conjugated anti-human IgG was added and incubated for 30 minutes on ice. Cells were resuspended with 100 μl of FACS buffer after two washes. One hundred microliters 100 μl of 1:50 diluted 7-AAD for live/dead staining was added to the cell suspension, which was ready for FACS analysis (BD Accuri C6 plus or LSR II Flow Cytometer, HTS).

The target of assay [5] is T3, human adenosine receptor A2B (Homo sapiens, UniProt P29275).
T3 construct: FLAG
T3 sequence (P29275 1-332): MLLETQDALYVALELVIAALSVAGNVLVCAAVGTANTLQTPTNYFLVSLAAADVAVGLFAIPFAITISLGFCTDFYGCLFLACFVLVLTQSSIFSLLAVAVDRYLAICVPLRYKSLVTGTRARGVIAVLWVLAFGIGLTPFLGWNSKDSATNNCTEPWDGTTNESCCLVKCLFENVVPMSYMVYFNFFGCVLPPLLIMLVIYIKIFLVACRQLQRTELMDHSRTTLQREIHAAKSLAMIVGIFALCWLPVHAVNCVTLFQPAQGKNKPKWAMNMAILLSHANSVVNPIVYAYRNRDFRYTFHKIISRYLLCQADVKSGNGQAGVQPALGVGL
The assay can be described thus: flow cytometry-based cell-binding assay, HEK293T-A2B. As to conditions: duplicate. Here is the method:
as §1

The target of the next assay is T4, human A2aR (Homo sapiens, UniProt P29274).
T4 construct: expressed in transfected cells; host or cells: Expi293
T4 sequence (P29274 whole entry): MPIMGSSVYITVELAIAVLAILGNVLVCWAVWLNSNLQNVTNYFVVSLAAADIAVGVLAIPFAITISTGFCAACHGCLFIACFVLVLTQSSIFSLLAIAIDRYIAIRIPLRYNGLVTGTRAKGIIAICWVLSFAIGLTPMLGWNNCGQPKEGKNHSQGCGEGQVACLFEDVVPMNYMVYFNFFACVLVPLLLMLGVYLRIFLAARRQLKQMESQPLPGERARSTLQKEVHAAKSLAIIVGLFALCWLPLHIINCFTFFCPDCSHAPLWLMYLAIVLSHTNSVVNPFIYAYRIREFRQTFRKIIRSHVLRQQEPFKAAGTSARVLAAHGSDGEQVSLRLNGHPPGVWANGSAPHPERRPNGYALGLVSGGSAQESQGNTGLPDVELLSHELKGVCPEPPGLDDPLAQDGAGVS
The assay can be described thus: FACS binding titration on hA2aR-Expi293 cells. As to conditions: 12-point 1:2 serial dilution starting from 7.5 ug/ml. The protocol: as §2

“And” between values parts separate entries of the source, which are not always exact repeats. Equal entries are not always repeated. “Also recorded” adds a separate entry of the source.

B1: 3F6-9G5: anti-human A2aR monoclonal antibody from mouse hybridoma clone; HCVR SEQ ID NO: 36, LCVR SEQ ID NO: 42 (antibody, V domains shown)
VH: QVQLQQPGTELVKPGAPVRLSCKASGFAFTSYWMNWVRQRPGRGLEWIGRIDPSDSEAHYHHKFWGKATLTVDKSSSTVYIQLNGLTSEDSAVYYCLRSLYGKGDYWGHGTTLTVSS
VL: DVLMTQTPLSLSVRLGDQASISCRSSQSLVHRNGNTYLEWYLQRPGQSPKLLIYKVSNRFSGVPDRFSGSGSGTDFTLKISRVEAEDLGVYYCYQGSHVPLTFGSGTKLEIK
For B1, the “Geo Mean” value in assay [1] (2 nM) is 8.35 and 8.81; in assay [1] (10 nM) it was 15.26 and 15.56; in assay [1] (50 nM) it was 22.97 and 22.51; in assay [2] (2 nM), 2.07 and 1.96; in assay [2] (10 nM) it was 2.49 and 2.33; in assay [2] (50 nM), 2.66 and 2.25. Besides, the “Geo Mean” value in assay [5] (2 nM) is 3.13 and 2.8; in assay [5] (50 nM) it was 7.27 and 3.74. Besides, the “binding to HEK293T-A1 relative to binding to human A2aR (in words)” value in assay [1] is reported as “significantly weaker”. Besides, the “binding to parental Expi293 cells (FIG. 2)” value in the assay on parental Expi293 cells [3] is listed as “not to parental Expi293 cells”. Also, the “binding to parental Expi293 (FIG. 5)” value in the assay with parental Expi293 cells [4] is reported as “not to parental Expi293”. The “binding to hA2aR-Expi293 (FIG. 5)” value in the assay with human A2aR is “strong dose-dependent specific binding; also recorded: specifically binds”.

B2: anti-human A2aR monoclonal antibody 1B5-3D7 (antibody, V domains shown)
VH: QVQLQQPGTELVKPGAPVKLSCKTSGFTFTRFWMNWVRQRPGRGLEWIGRIDPYDSETQYNHKFWDRATLTVDKSSSTVYIQLSSLTSEDSAVYYCGRSLYGKGDYWGQGTTLTVSS
VL: DVLMTQSPLSLPVSLGDQASISCRSSQSIVHSNGNTYLEWYLQRPGQSPKLLIYKVSNRFSGVPDRFSGSGSGTYFTLRISRVEAEDLGIYYCFQGSHVPLTFGSGTTLELK
notes: Tested as whole mouse IgG2a / kappa, purified from hybridoma supernatant or made recombinantly in Expi293 cells; also called 1B-3D7
As to B2, the “Geo Mean” value in assay [1] (2 nM) is 10.15 and 11.83; in assay [1] (10 nM), 18.4 and 24.97; in assay [1] (50 nM), 27.59 and 30.66; in assay [2] (2 nM), 2.11 and 2.09; in assay [2] (10 nM), 2.23 and 2.32; in assay [2] (50 nM), 2.45 and 2.3. For the same molecule, the “Geo Mean” value is 5.42 and 3.8 in assay [5] (2 nM); 3.42 and 2.79 in assay [5] (50 nM). In addition, the “binding to HEK293T-A1 relative to binding to human A2aR (in words)” value in assay [1] is “significantly weaker”. Besides, the “binding to parental Expi293 cells (FIG. 2)” value in the assay with parental Expi293 cells [3] is given as “not to parental Expi293 cells”. In the assay on parental Expi293 cells [4], the “binding to parental Expi293 (FIG. 5)” value is “not to parental Expi293”. For the same molecule, the “binding to hA2aR-Expi293 (FIG. 5)” value with human A2aR is reported as “strong dose-dependent specific binding; also recorded: specifically binds”.
